This series is described as follows: yeast display, Sf9 membrane polyspecificity reagent, FACS + sequencing; frameworks hold sequencing errors. The procedure, abridged:
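A synthetic nanobody library was expressed on Saccharomyces cerevisiae BJ5465 by galactose induction for 36–48 hours. The library was stained for 1 hour at 4 °C with 10% biotinylated, detergent-solubilized Sf9 membrane reagent and enriched with streptavidin microbeads before FACS. Low and high (top ~1%) gates were set on anti-HA fluorescence for expression and streptavidin fluorescence for reagent binding, and each polyreactivity label reflects the gate of origin.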
Take “QVQLEESGGGLVQAGGSLRLSCAASGFNFRKNVMGWYRPAPGKERELVAAISAPGGSTYYAHSVKGRFTISRDNGKNTGYLQMYCLKPEDPAVYFCKTDGYLYQYDYWGQGTQVTVSS”: the “polyreactivity (PSR sort gate)” value is given as “high polyreactivity”. The entry for “QVQLEESGGGLVQAGGSLRLSCAASGFNFWVYAMGWYRQAPGKERELVAAISYNGGRTYYADSVKGRFTISRDNAKNTVYLQMNSLKPEDTAVYYCASLPAPTGRGDYWGQGTQVTVSS” is “high polyreactivity”; for “QVQLEESGGGLVQAGGSLRLSCAASGFTFNYYTMGWYTQAPGKERELVATISTRGGSTYYADSVKGRFTISRDNAKNSVYLQMNSLKPEDTAVYYCNVGQKSVSSAYDYWGQGTEVTVSS” it is “high polyreactivity”. As to “QVQLEESGGGLVQAGGSLRLSCAASGFTFRRYAMGWYRQAPGKERELVAVITTAGYTNYADSVKGRFTISRDNAKNSVYLQMNSLKPEDTAVYYCATDNGTRKRRYDYWGQGTQVTVSS”, the “polyreactivity (PSR sort gate)” value is “low polyreactivity”. The entry for “QVQLEESGGGLVQAGGSLRLSCAASGFTFTRNAMGWYRQAPGKERELVAAISRGGSTNYADSVQGRFRISSDNAKNTVYLQMNSLKPEDTAVYYCAKVRTRATPGVDYYYWGQGTQVTVSS” is “high polyreactivity”. As to “QVQLEESGGGLVQAGGSLRLSCAASGFTFTTNAMGWYRQAPGKERELVAAISFSGGTTYYADSVKGRFTISRDNAKNTVYLQMNSLKPEDTAVYYCAAQPGQAWWSTDHDDYWGQGTQVSVSS”, the “polyreactivity (PSR sort gate)” value is given as “low polyreactivity”. In the case of “QVQLEESGGGLVQAGGSLRLSCAASGFTFVDYLMGWYRQAPGKERELVAAITRSGGSTYYADSVKGRFTISRDQAKNTVYLEMNSLKPEDTAVYYCAAEIRDYAKSYSFYWGQGTQVTVSS” it was “high polyreactivity”.

On to “QVQLEESGGGLVQAGGSLRLSCAASGFTFYLYTMGWYRQAPGKERELVAAISRSGDRTYYADSVKGRFSISRDNAKNTVYLQMNSLKPEDTAVYYCAARSYRPTRGDYWGQGTQVTVSS”, for which the “polyreactivity (PSR sort gate)” value is “high polyreactivity”. As to “QVQLEESGGGLVQAGGSLRLSCAASGFTFYSYAKGCSRQAPGKERELVAAISWSGSRTYYADSVKGRFTISRDNAKNTVYLQMNSLKPEDTAVYVCNKYLPRHRYDFDYWGQGTQVTVSS”, the “polyreactivity (PSR sort gate)” value is listed as “high polyreactivity”. The entry for “QVQLEESGGGLVQAGGSLRLSCAASGFTIGVYAMGWYRQAPGKERELVAAISARGGSTYYADSVKGRFTISRDNAKKTVYLQMNSLKPEDTAVFYCAVVLKYVSADQMDYWGQGTQVTVSS” is “high polyreactivity”; for “QVQLEESGGGLVQAGGSLRLSCAASGGIFDYNSMGWYRQAPGKERELVAAISSGASTTYADSVKGRFTISRDNAKNTVYLQMNSLKPEATAVYYCAAYWKSRYLSGLEYYSWGQGTQVTVSS” it is “low polyreactivity”; for “QVQLEESGGGLVQAGGSLRLSCAASGGIFYGYAMGWNRQAPGIERELVAAISDSGGSTYYADSVKGRFTISRDNAKNTVFLQLNSLNPEDTAVYYCATDARVGGYVSEGDFWGQGTQVTVSW” it is “low polyreactivity”. As for “QVQLEESGGGLVQAGGSLRLSCAASGGTFDHYTMGWYRQAPGKERELVAAISRRSGRTYYADSVKGRFTISRDKAKNTVYLQMNSLKPEDTAVYYCNADGYTRAFDYWGQGTQVTVSS”, the “polyreactivity (PSR sort gate)” value is given as “high polyreactivity”. In the case of “QVQLEESGGGLVQAGGSLRLSCAASGIIFATYAMGWYTQAPGKDRELVAAISSGGRTYYADSVKGRFTISRDNAKNTVYFQMNSLKPEDTAVYYCAAKSGGRSSLYNYWGQGTQVTVSS” it was “high polyreactivity”; in that of “QVQLEESGGGLVQAGGSLRLSCAASGIIFSPYAMGWYIQAPWKERELVAAINFSTGRTYYADSVKGRFTISRDNAKNTVYLQMNSLKPEDTAVYYCAAGKYPYVFRGGYDYWGQGTQVTVSS”, “low polyreactivity”. For “QVQLEESGGGLVQAGGSLRLSCAASGIIFYRSVMGWYRQAPGKERELVAAITGGGSTYYADSVKGRFTISRDNAKNTVYLQMNSLKPEDTAVYYCNADIRAYTVLTGGYIYDYWGQVTQVTVSS”, the “polyreactivity (PSR sort gate)” value was “high polyreactivity”. Regarding “QVQLEESGGGLVQAGGSLRLSCAASGITFAHYAMGWSRQAPGKDRELVAAISQSGGSTYYADSVKGRFTISRDNAKNTVYLQMNSLKPEDTAVYYCNKYRYPQDDYWGQGTQVTVSS”, the “polyreactivity (PSR sort gate)” value was “high polyreactivity”.

Turning to “QVQLEESGGGLVQAGGSLRLSCAASGITFNQYVMGWYRQAPGKEMELVAAISRSGATTYYADSVKGRFTISRDNAKNTVYLQMNSLKPEDTAVYYCAVRGSVSYTRYGYWGQGTQVTVSS”, the “polyreactivity (PSR sort gate)” value is given as “high polyreactivity”.

For “QVQLEESGGGLVQAGGSLRLSCAASGITFTLNAMGWYRQAPGKERELVATINRGTGTNYADSVKGRFTISRDNAKYTVYLQMNSLKPEVTAVYYCAADHRGEYDYWGQGTQVTVSS”, the “polyreactivity (PSR sort gate)” value is “low polyreactivity”. In the case of “QVQLEESGGGLVQAGGSLRLSCAASGITFVGNAMGWYRQAPGKERELVAGIRGNGGSTYYADSVKGRFTISRDNAKNTVYLQMHSMNPEDTAVYYCAAAAYYADFDYWGQGTQVTVSS” it was “low polyreactivity”; in that of “QVQLEESGGGLVQAGGSLRLSCAASGITYYYAMGWYRQAPGKERELVAVITPGVSTNYADSVKGRFTISRDNAKNSVYLHMNSLKPEDTAVYYCATDVQVPCIGRSVYAYEYWGQGTQVTVSS”, “low polyreactivity”. In the case of “QVQLEESGGGLVQAGGSLRLSCAASGLICVLYTMGSYRQAPGKERELVATINWGGGNTYYADSVKGRFTISRDNAKNTVYLQMNSLKPEDTAVYYCAAAYTWYGYSQAYYYWGQGTQVTVSS” it was “low polyreactivity”; in that of “QVQLEESGGGLVQAGGSLRLSCAASGLTLGRYAMGWYRQAPGKERELVAVITGGGSTNYADSVKGRFTISRDNAKNTVYLQMNSLKPEDTAVYSCAVRGGIFQTLSTWYRYYYWGQGTQVTVSS”, “high polyreactivity”. Regarding “QVQLEESGGGLVQAGGSLRLSCAASGRIFAGYAMGWYRQEPGKERELVAAINGSGADTYYADSVKGRFTISRDNAKNTVYLQMNSLKPEDTAVYYCAASPGSQYTGYDYWGQGTQVTVSS”, the “polyreactivity (PSR sort gate)” value is recorded as “low polyreactivity”.

Turning to “QVQLEESGGGLVQAGGSLRLSCAASGRIFGVYAMGWYRQAPGKERELVAAISWSASSTYYADSVKGRFTISRDNAKNTVYLQMNSLKPEDTAVYYCNAEVLGFYELDYWGQGTQVTVSS”, the “polyreactivity (PSR sort gate)” value is reported as “high polyreactivity”. The entry for “QVQLEESGGGLVQAGGSLRLSCAASGRIFKSYTMGGYRQAPGKERELVAAITKSAASTYYADSVKGRFTISRDNAKNTVYLQMNSLKPVDTAVYYCAASRIGGGKVKFGYWGQGTQVTVSS” is “high polyreactivity”; for “QVQLEESGGGLVQAGGSLRLSCAASGRIFMTYAMGWYRQAPGKERELVAAITRRGGTTYYADSEKARFTISRDNAKNTVYLQMNCLKPEDTAVYYCAPAKPRVISQNIIYDYWGQGTQVTVSS” it is “high polyreactivity”; for “QVQLEESGGGLVQAGGSLRLSCAASGRIFSDYAKGGYRQAPGKERELVATITSGDSTNYADSVKGRFTISRDNAKNTVYLQMNRLKPEDTAVYYCNADRFADYDYWGQGTQVTVSS” it is “low polyreactivity”. The entry for “QVQLEESGGGLVQAGGSLRLSCAASGRIFSPNVRGWYRKATGKERELVAGITSSGGSTYYADSVKGRLTISRDNAKNTVYLQMNSLKPEYTAVYYCAAPWVGTFVSGRGYYWGQGTQVTVSS” is “low polyreactivity”; for “QVQLEESGGGLVQAGGSLRLSCAASGRIFTRYALGWYRQAPGKERELVAAITGSGGSTYYADSVKGRFTISRDNAKNTVYLQMNSRKPEDTAVYYCATDFYCYRSYNYWGQGTQVTVSS” it is “high polyreactivity”.

(Values after the nanobody polyreactivity screen of Harvey et al. (2022).)
